The record followed here is US20220251219A1 (published 2022).

Assay [1] addresses T1, recombinant human Sortilin (human, UniProt Q99523 78-830).
T1 construct: also called hSort; SORT1
Put plainly: flow cytometry, 293 cells expressing recombinant human Sortilin, 10 ug/ml antibody. For orientation: A flow cytometer gives signals particle by particle.
Description: (§1) Cells were harvested, plated at 10⁵/ml in a 96 well plate, washed, and incubated in 100 μl PBS containing 10 μg/ml Mab and 2% FBS for 1 hour in ice. Cells were then washed twice and incubated in 100 μl PBS+2% FBS containing 5 μg/ml PE-conjugated anti-human secondary antibody for 30 minutes in ice. Cells were washed twice in cold PBS and data was acquired on a BD FACS Canto. Data analysis and calculation of MFI values was performed with FlowJo (TreeStar) software version 10.0.7.

The target in assay [2] is T2, recombinant mouse Sortilin (mouse, UniProt Q6PHU5 74-825).
T2 construct: also called mSort
Put plainly: flow cytometry, 293 cells expressing recombinant mouse Sortilin, 10 ug/ml antibody.
Description: as §1

Assay [3] has as its target human Sortilin (human, UniProt Q99523 78-830). Put plainly: cell-based or functional assay.

Where a chain is given by its changes, count along the chain named.

B1: anti-Sortilin antibody S-40 (antibody, V domains shown)
VH: not shown
VL: EIVMTQSPATLSLSPGERATLSCRASQSVSSYLAWYQQKPGQAPRLLIYDASNRATGIPARFSGSGSGTDFTLTISSLEPEDFAVYYCQQRSALPFTFGGGTKVEIK
notes: IgG
As for B1, the MFI in assay [1] came out at 7410 MFI; in assay [2] it was 2630 MFI.

B2: anti-Sortilin antibody S-51 (antibody, V domains shown)
VH: QVQLVESGGGVVQPGRSLRLSCAASGFTFSSYGMHWVRQAPGKGLEWVAVISYDGSNKYYADSVKGRFTISRDNSKNTLYLQMNSLRAEDTAVYYCAKGLEYYDSSRLYYPYYYYMDVWGKGTTVTVSS
VL: B1 VL with M4L, N53K, A93N, L94Y, F96I
notes: IgG
Turning to B2, the results for the MFI in assay [1] and in assay [2] were 12200 MFI and 21900 MFI, respectively.

B3: anti-Sortilin antibody S-55 (antibody, V domains shown)
VH: QVQLQESGPGLVKPSETLSLTCAVSGYSISSGYYWGWIRQPPGKGLEWIGSIYHSGSTYYNPSLKSRVTISVDTSKNQFSLKLSSVTAADTAVYYCARGRPELGWDKYFQHWGQGTLVTVSS
VL: DIQMTQSPSSVSASVGDRVTITCRASQGISRWLAWYQQKPGKAPKLLIYAASSLQSGVPSRFSGSGSGTDFTLTISSLQPEDFATYYCQQANALPTFGGGTKVEIK
notes: IgG
For B3, the MFI is 9480 MFI in assay [1] and 21400 MFI in assay [2].

B4: anti-Sortilin antibody S-10 (antibody, V domains shown)
VH: QVQLVQSGAEVKKPGASVKVSCKASGYTFTSYGISWVRQAPGQGLEWMGWISAYNGNTNYAQKLQGRVTMTTDTSTSTAYMELRSLRSDDTAVYYCARDPGGYGPTLYYYYGMDVWGQGTTVTVSS
VL: EIVMTQSPATLSVSPGERATLSCRASQSVSSNLAWYQQKPGQAPRLLIYGASTRATGIPARFSGSGSGTEFTLTISSLQSEDFAVYYCQQYADWPPITFGGGTKVEIK
notes: IgG
B4: the results for the MFI in assay [1] and in assay [2] were 8660 MFI and 19400 MFI, respectively.

B5: anti-Sortilin antibody S-12 (antibody, V domains shown)
VH: QVQLVQSGAEVKKPGASVKVSCKASGYTFTSYGISWVRQAPGQGLEWMGWISAYNGNTNYAQKLQGRVTMTTDTSTSTAYMELRSLRSDDTAVYYCARDLPKYKWGWFDPWGQGTLVTVSS
VL: not shown
Consider B5, for which, in assay [3], the “Percent reduction of Sortilin levels in U251 cells” value (“Percent reduction” for short) is 12%.

B6: anti-Sortilin antibody S-12 (antibody, V domains shown)
VH: B5 VH
VL: not shown
notes: IgG
Take B6: the figures for the MFI in assay [1] and in assay [2] were 9760 MFI and 18800 MFI, respectively.

B7: anti-Sortilin antibody S-60 (antibody, V domains shown)
VH: QVQLQESGPGLVKPSETLSLTCAVSGYSISSGYYWGWIRQPPGKGLEWIGTIYHSGSTYYNPSLKSRVTISVDTSKNQFSLKLSSVTAADTAVYYCARQGSIKQGYYGMDVWGQGTTVTVSS
VL: not shown
Regarding B7, in assay [3], the “Fold increase in Progranulin levels in U251 cells” value was 2.24 fold and the “Percent reduction” value is 59.5%.

B8: anti-Sortilin antibody S-74 (antibody, V domains shown)
VH: QVQLQESGPGLVKPSQTLSLTCTVSGGSISSGTYYWSWIRQHPGKGLEWIGYIYYSGSTYYNPSLKSRVTISVDTSKNQFSLKLSSVTAADTAVYYCARGVGRYRVADYWGQGTLVTVSS
VL: EIVMTQSPATLSLSPGERATLSCRASQSVSSYLAWYQQKPGQAPRLLIYDSSNRATGIPARFSGSGSGTDFTLTISSLEPEDFAVYYCQQETNMPPITFGGGTKVEIK
Take B8: the “Percent reduction” value in assay [3] was found to be 22.1%.

B9: anti-Sortilin antibody S-83 (antibody, V domains shown)
VH: QLQLQESGPGLVKPSETLSLTCTVSGGSISSSSYYWGWIRQPPGKGLEWIGSIYYSGSTYYNPSLKSRVTISVDTSKNQFSLKLSSVTAADTAVYYCARGSPTWLRDYYMDVWGKGTTVTVSS
VL: EIVLTQSPATLSVSPGERATLSCRASQSVSSNLAWYQQKPGQAPRLLIYGASTRATGIPARFSGSGSGTEFTLTISSLQSEDFAVYYCQQYNAFPPTFGGGTKVEIK
As to B9, the “Percent reduction” value in assay [3] turned out to be 48.1%.

B10: anti-Sortilin antibody S-6 (antibody, V domains shown)
VH: not shown
VL: B9 VL with L4M, Y91V, N92A, A93N, F94Y, P96R
notes: IgG
In the case of B10, the MFI stood at 11100 MFI in assay [1] and 25600 MFI in assay [2].

B11: anti-Sortilin antibody S-69 (antibody, V domains shown)
VH: QVQLQESGPGLVKPSQTLSLTCTVSGGSISSGGYYWSWIRQHPGKGLEWIGYIYYSGSTYYNPSLKSRVTISVDTSKNQFSLKLSSVTAADTAVYYCARDRGGTHFGADHYYYGMDVWGQGTMVTVSS
VL: B9 VL with L4M, N32S, Y91A, N92A, A93D, F94W, P96I
For the molecule B11, the “Percent reduction” value in assay [3] was found to be 23%.

B12: anti-Sortilin antibody S-9 (antibody, V domains shown)
VH: B4 VH
VL: B9 VL with L4M, A93I, F94Y, P96L
notes: IgG
Consider B12, for which the MFI in assay [1] worked out at 10300 MFI; in assay [2] it was 22200 MFI.

B13: anti-Sortilin antibody S-4 (antibody, V domains shown)
VH: not shown
VL: B9 VL with L4M, Y91F, N92R, A93V, F94L
notes: IgG
For the molecule B13, the MFI in assay [1] is 9120 MFI; in assay [2] it was 15700 MFI.

B14: anti-Sortilin antibody S-58 (antibody, V domains shown)
VH: QVQLQESGPGLVKPSETLSLTCAVSGYSISSGYYWGWIRQPPGKGLEWIGSIYHSGNTYYNPSLKSRVTISVDTSKNQFSLKLSSVTAADTAVYYCARGPPELGKMYFQHWGQGTLVTVSS
VL: B9 VL with Y91D, N92R, A93K, F94G, P96L
notes: IgG
In the case of B14, the MFI was 7770 MFI in assay [1] and 15100 MFI in assay [2].

B15: anti-Sortilin antibody S-61 (antibody, V domains shown)
VH: QVQLQESGPGLVKPSETLSLTCAVSGYSISSGYYWGWIRQPPGKGLEWIGSIYHSGSTYYNPSLKSRVTISVDTSKNQFSLKLSSVTAADTAVYYCARGSPRFYYGSGSYLDLFDIWGQGTMVTVSS
VL: B9 VL with L4M, Q90E, N92L, A93N, F94Y, P96I
notes: IgG
Regarding B15, the MFI stood at 7480 MFI in assay [1] and 21800 MFI in assay [2].

B16: anti-Sortilin antibody S-48 (antibody, V domains shown)
VH: QVQLVESGGGVVQPGRSLRLSCAASGFTFSSYGMHWVRQAPGKGLEWVAVISYDGSNKYYADSVKGRFTISRDNSKNTLYLQMNSLRAEDTAVYYCARESGDRATLVYYYYYGMDVWGQGTTVTVSS
VL: B9 VL with L4M, G50S, A93S, F94W, P96I
notes: IgG
Regarding B16, the MFI in assay [1] came to 8140 MFI; in assay [2] it was 11900 MFI.

B17: anti-Sortilin antibody S-64 (antibody, V domains shown)
VH: QVQLQESGPGLVKPSETLSLTCAVSGYSISSGYYWGWIRQPPGKGLEWIGSIYHSGSTYYNPSLKSRVTISVDTSKNQFSLKLSSVTAADTAVYYCARAEHRGPRYFDLWGRGTLVTVSS
VL: DIQMTQSPSSLSASVGDRVTITCRASQSINSYLNWYQQKPGKAPKLLIYAASSLQSGVPSRFSGSGSGTDFTLTISSLQPEDFATYYCQQLDSTPITFGGGTKVEIK
Turning to B17, the “Percent reduction” value in assay [3] turned out to be 37.4%.

B18: anti-Sortilin antibody S-14 (antibody, V domains shown)
VH: QVQLVQSGAEVKKPGASVKVSCKASGYTFTSYYMSWVRQAPGQGLEWMGIINPSGGSTSYAQKFQGRVTMTRDTSTSTVYMELSSLRSEDTAVYYCARDPSGIAAAGPASRYYYGMDVWGQGTTVTVSS
VL: B17 VL with N30S, A50G, L91H, D92Y, S93V, T94G, I96F
notes: IgG
On to B18, for which the figures for the MFI in assay [1] and in assay [2] were 8010 MFI and 16500 MFI, respectively.

B19: anti-Sortilin antibody S-65 (antibody, V domains shown)
VH: B17 VH with A99E, E100G, H101Q, R102L, G103P, P104T, R105G, Y106T, L109Y, R112Q
VL: not shown
As for B19, the “Percent reduction” value in assay [3] turned out to be 37.3%.

B20: anti-Sortilin antibody S-65 (antibody, V domains shown)
VH: B17 VH with A99E, E100G, H101Q, R102L, G103P, P104T, R105G, Y106T, L109Y, R112Q
VL: not shown
notes: IgG
B20: the MFI in assay [1] is 8070 MFI; in assay [2], 17900 MFI.

B21: anti-Sortilin antibody S-16 (antibody, V domains shown)
VH: QVQLVQSGAEVKKPGSSVKVSCKASGGTFSSYAISWVRQAPGQGLEWMGGIIPIFGTANYAQKFQGRVTITADESTSTAYMELSSLRSEDTAVYYCARSPYSGTRDFDLWGRGTLVTVSS
VL: B17 VL with L11V, S28G, N30S, Y32W, N34A, S53N, L91G, D92N, T94Y
notes: IgG
Turning to B21, the MFI in assay [1] turned out to be 6280 MFI.

B22: anti-Sortilin antibody S-64 (antibody, V domains shown)
VH: B17 VH
VL: B17 VL
notes: IgG
With B22, the MFI in assay [1] is 7930 MFI.

B23: anti-Sortilin antibody S-2 (antibody, V domains shown)
VH: not shown
VL: B17 VL with N30S, L91S, S93V, T94S
notes: IgG
On to B23, for which the MFI is 8430 MFI in assay [1] and 22400 MFI in assay [2].

B24: anti-Sortilin antibody S-76 (antibody, V domains shown)
VH: QVQLQESGPGLVKPSQTLSLTCTVSGGSISSGGYYWSWIRQHPGKGLEWIGSIYYSGSTYYNPSLKSRVTISVDTSKNQFSLKLSSVTAADTAVYYCARGVGIQQQLVLGFDPWGQGTLVTVSS
VL: B17 VL with N30S, Y32F, Y49S, L91S, D92Y, S93R, T94E
Turning to B24, in assay [3], the “Percent reduction” value amounted to 20.3%.
